{
  "source": "patent US6586252B2",
  "about": "“Nucleic acid molecule encoding the catalytic subunit of a protein phosphatase 2A that regulates flowering time in plants” (Korea Kumho Petrochemical Co., Ltd., priority 2001, dated 2003)",
  "molecules": {"B1": {"name": "PP2AC-JD: recombinant catalytic subunit of a pea protein phosphatase 2A (SEQ ID NO: 2), expressed in E. coli BL21 (protein)", "chain": "MDLDQWISKVKDGQHLLEDELQLLCEYVKEILIEESNVQPVNSPVTVCGDIHGQFHDLMKLFQTGGHVPETNYIFMGDFVDRGYNSLDVFTILLLLKARYPANITLLRGNHESRQLTQVYGFYDECQRKYGNANATRYCTDVFDYLTLSAIIDGTVLCVHGGLSPDIRTIDQIRVIERNCEIPHEGPFCDLMWSDPEDIETWAVSPRGAGWLFGSRVTSEFNHINNLDLVCRAHQLVQEGLKYMFQDKGLVTVWSAPNYCYRCGNVASILSFNENMEREVKFFTETEENNQMRGPRTGVPYFL"}},
  "system": "phosphorylated oat phytochrome A",
  "assay": "Dephosphorylation of autophosphorylated oat phytochrome A by recombinant PP2AC-JD (SDS-PAGE, autoradiography)",
  "format": "biochemical",
  "protocol": "The oat phytochrome A was first autophosphorylated in the presence of γ[32P]ATP under the light conditions indicated. The recombinant PP2AC-JD protein was expressed via the pGEX-4T-1 expression vector in E. coli strain BL21 as a GST fusion, and the GST tag domain was cleaved out by thrombin digestion. (A) Cation requirements for the PP2AC-JD activity. One μg of the phosphorylated phytoclirome A was incubated with 0.2 μg of the recombinant PP2AC-JD for 30 minutes at room temperature, analysed on 12% SDS-PAGE, and subject to autoradiography. (B) Spectral form-dependent dephosphorylation of the phytochrome A. The Pfr form was a better substrate for the PP2AC-JD than the Pr form.\nThe enzymatic activity of the protein phosphatase encoded by said nucleic acid molecule can be assayed using a phosphorylated protein, preferentially autophosphorylated phytochromes. The reaction mixture is then analyzed on SDS-PAGE and visualized by autoradiography.\nThe PCR product containing the PP2AC-JD gene was double-digested with EcoRI and XhoI and incorporated into the pGEX-4T-1 E. coli expression vector, resulting in pG-PP2AC-JD. In this expression construct, the PP2AC-JD gene sequence was in frame fused to the glutathione S-transferase (GST) coding sequence at the N-terminus. The vector construct was transformed into E. coli strain BL21, and the transformants were selected with 100 μg/ml ampicillin. RB medium, rather than LB, was used for induction. Two hundred fifty ml of RB (0.5% yeast extract, 1% tryptone, 0.5% NaCl, 0.2% glucose, pH 7.5 with NaOH) supplemented with ampicillin (100 μg/ml) was inoculated with 3 ml of freshly grown cell culture and incubated at 20° C. with shaking at 250 rpm to an OD600 of 0.6. Expression was induced by adding IPTG (1 μM) and by further shaking at 20° C. for 5 hours. After centrifugation at 5000×g for 5 minutes, the cell pellet was washed in ice-cold 1×Phosphate-Buffered Saline (PBS, 140 mM NaCl, 2.7 mM KCI, 10 mM Na2HPO4, 1.8 mM KH2PO4, pH7.3). […]",
  "data": [
    {"molecule": "B1", "values": [
      {"measurement": "stimulatory effect of other cations on PP2AC-JD activity", "setting": "cations other than Fe2+ or Zn2+", "result": "did not show any significant stimulatory effects"},
      {"measurement": "dephosphorylation of phosphorylated oat phytochrome A", "setting": "in the presence of Fe2+ or Zn2+, 1 μg phytochrome A, 0.2 μg PP2AC-JD, 30 minutes, room temperature", "result": "efficiently dephosphorylated"},
      {"measurement": "dephosphorylation of Pfr phytochrome A compared with the Pr spectral form", "setting": "phytochrome A autophosphorylated under different light conditions", "result": "more efficiently dephosphorylated"}
    ]}
  ]
}
